± gives the standard deviation of the averaged measurements.
B1: library; a variant is named by its letters at N, in order (parent)
chain: AATGTTGTTGATGCAACCATAAAGTGATATTTAATAATTATTTATAATCAGCAACTTAACCACAAAACAACCATATATTGATATNTCACAAAACAACCATAANTTGATATTTTTGTGAATCGAGTATTTCAGCAAAACTACTGCAGTAAGAA

What was measured:
[1] = variants of: B1; experiment: relative integration efficiency (T-LR orientation) vs wild-type transposon end (log2 (normalized fold change)); transposon end mutated: left end; higher = more efficient transposition; details: with VchCAST RNA-guided transposition machinery (E. coli BL21(DE3) host, lacZ target)
Method in brief: (§1)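 Relative integration efficiency is a fold change of output over input barcode abundance, normalised to reference barcodes and log-transformed. Input plasmids and genomic integration junctions were PCR-amplified and Illumina-sequenced from E. coli BL21(DE3) co-transformed with a T7-driven effector plasmid and pUC57 donor pools of 1549 left-end or 1849 right-end transposon variants. Plating was done with 0.1 mM IPTG at 37°C for 18 h, with two biological output replicates and four reference barcodes.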

[2] = variants of: B1; experiment: relative integration efficiency (T-RL orientation) vs wild-type transposon end (log2 (normalized fold change)); transposon end mutated: left end; higher = more efficient transposition; details: with VchCAST RNA-guided transposition machinery (E. coli BL21(DE3) host, lacZ target)
Method in brief: as §1

Variant | relative integration efficiency (log2) [1] | relative integration efficiency (log2) [2]
AATGTTGTTGATGCAACCATAAAGTGATATTTAATAATTATTTATAATCAGCAACTTAACCACAAAACAACCATATATTGATATCTCACAAAACAACCATAAGTTGATTTTTTTGTGAATCGAGTATTTCAGCAAAACTACTGCAGTAAGAA | 0.223 ± 0.47 | 0.209 ± 0.39
AATGTTGTTGATGCAACCATAAAGTGATATTTAATAATTATTTATAATCAGCAACTTAACCACAAAACAACCGTATATTGATATCTCACAAAACAACCATAAGTTGATATTTTTGTGAATCGAGTATTTCAGCAAAACTACTGCAGTAAGAA | 0.14 ± 0.13 | 0.0329 ± 0.31
AATGTTGTTGATGCAACCATAAAGTGATATTTAATAATTATTTATAATCAGCAACTTAACCACAAAACAACCATATATAGATATCTCACAAAACAACCATAAGTTGATATTTTTGTGAATCGAGTATTTCAGCAAAACTACTGCAGTAAGAA | -0.546 ± 0.48 | -0.596 ± 0.38
AATGTTGTTGATGCAACCATAAAGTGATATTTAATAATTATTTATAATCAGCAACTTAACCCAAAAACAACCATATATTGATATCTCACAAAACAACCATAAGTTGATATTTTTGTGAATCGAGTATTTCAGCAAAACTACTGCAGTAAGAA | -0.193 ± 0.12 | 0.182 ± 0.065
AATGTTGTTGATGCACCCATAAATTGATAATTAATAATTATTTATAATCAGCAACTTAACCACAAAACAACCATAAAATGATAATTAACAAAACACCCATAAATTGATAATTATGTGAATCGAGTATTTCAGCAAAACTACTGCAGTAAGAA | -0.28 ± 0.67 | -0.316 ± 0.43
AATGTTGTTGATGCAACCATAAAGTGATATTTAATAATTATTTATAATCAGCAACTTAACCACAAAACAACCATATATTGATATCTCGCAAAACAACCATAAGTTGATATTTTTGTGAATCGAGTATTTCAGCAAAACTACTGCAGTAAGAA | -0.182 ± 0.22 | -0.24 ± 0.098
ACTGTTGTTGATGCAACCATAAAGTGATATTTAATAATTATTTATAATCAGCAACTTAACCACAAAACAACCATATATTGATATCTCACAAAACAACCATAAGTTGATATTTTTGTGAATCGAGTATTTCAGCAAAACTACTGCAGTAAGAA | 0.61035 ± 0.00046 | -0.0562 ± 0.037
AATGTTGTTGATGCAACCATAAAGTGATATTTAATAATTATTTATAATCAGCAACTTATCCACAAAACAACCATATATTGATATCTCACAAAACAACCATAAGTTGATATTTTTGTGAATCGAGTATTTCAGCAAAACTACTGCAGTAAGAA | 0.107 ± 0.13 | 0.0634 ± 0.055
AATGCTGTTGATGCAACCATAAAGTGATATTTAATAATTATTTATAATCAGCAACTTAACCACAAAACAACCATATATTGATATCTCACAAAACAACCATAAGTTGATATTTTTGTGAATCGAGTATTTCAGCAAAACTACTGCAGTAAGAA | -0.291 ± 0.23 | -0.319 ± 0.008
AATGTTGTTGATGCAACCATAAAGTGATATTTAATAATTATTTATAATCAGCAACTTAACCCACCAACAACCATATATTGATATCTCACAAAACAACCATAAGTTGATATTTTTGTGAATCGAGTATTTCAGCAAAACTACTGCAGTAAGAA | -0.604 ± 0.18 | -0.324 ± 0.044
AATGTTGTTGATGCAACCATAAAGTGATATTTAATACGTATTTATAATCAGCAACTTAACCACAAAACAACCATATATTGATATCTCACAAAACAACCATAAGTTGATATTTTTGTGAATCGAGTATTTCAGCAAAACTACTGCAGTAAGAA | -0.172 ± 0.0031 | -0.236 ± 0.044
AATGTTGTTGATGCAACCATAAAGTGATATTTAATAATTATTTATAATCAGCAACTTAACCACAAAACAACCATATATTGATATCTCATAAAACAACCATAAGTTGATATTTTTGTGAATCGAGTATTTCAGCAAAACTACTGCAGTAAGAA | 0.203 ± 0.062 | -0.158 ± 0.031
AATGTTGTTGATGCGACCATAAAGTGATATTTAATAATTATTTATAATCAGCAACTTAACCACAAAACAACCATATATTGATATCTCACAAAACAACCATAAGTTGATATTTTTGTGAATCGAGTATTTCAGCAAAACTACTGCAGTAAGAA | -0.118 ± 0.26 | -0.121 ± 0.26
AATGTTGTTGATGCAACCATAAAGTGATATTTAATAATTATTTATAATCAGCAACTTAACCACAAAACAACCATATATTGATATCTCACAAAACAACCATAAAGTGATATTTATGTGAATCGAGTATTTCAGCAAAACTACTGCAGTAAGAA | -0.00439 ± 0.14 | -0.216 ± 0.19
AATGTTGTTGATGCAACCATAAAGTGATATTTAATAATTATTTATAATCAGCAACTTAACCACAAAACAACCATATATTGATATCTCACAAACAAACCATAAGTTGATATTTTTGTGAATCGAGTATTTCAGCAAAACTACTGCAGTAAGAA | -0.406 ± 0.83 | -0.522 ± 0.41
AATGTTGTTGATGGAACCATAAAGTGATATTTAATAATTATTTATAATCAGCAACTTAACCACAAAACAACCATATATTGATATCTCACAAAACAACCATAAGTTGATATTTTTGTGAATCGAGTATTTCAGCAAAACTACTGCAGTAAGAA | -0.527 ± 0.35 | -0.0895 ± 0.33
AATGTTGTTGATGCAACCATAAAGTGATTTTTAATAATTATTTATAATCAGCAACTTAACCACAAAACAACCATATATTGATATCTCACAAAACAACCATAAGTTGATATTTTTGTGAATCGAGTATTTCAGCAAAACTACTGCAGTAAGAA | -0.0387 ± 0.14 | 0.26 ± 0.13
AATGTTGTTGATGCAACCATAAAGTGATATTTTATAATTATTTATAATCAGCAACTTAACCACAAAACAACCATATATTGATATCTCACAAAACAACCATAAGTTGATATTTTTGTGAATCGAGTATTTCAGCAAAACTACTGCAGTAAGAA | 0.232 ± 0.46 | 0.135 ± 0.21
AATGTTGTTGATGCAACCATAAAGTGATATTTAATAATTATTTATAATAAGCAACTTAACCACAAAACAACCATATATTGATATCTCACAAAACAACCATAAGTTGATATTTTTGTGAATCGAGTATTTCAGCAAAACTACTGCAGTAAGAA | -0.195 ± 0.69 | 0.178 ± 0.24
